According to the supplement of paper PMC10567573:

B1: NFE2L1 (parent)
chain: TLDGYGIHPKSIDLDNYFTARRLL

Variants of: B1
Assay: protein stability index of a GFP-peptide fusion (GPS, HEK-293T) (PSI 1-6); higher = more stable
Conditions: c terminus: a fixed tail appended
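Note: lentivirally expressed fusions sorted by FACS into six bins by GFP to DsRed ratio, PSI derived from sequencing read proportions per bin multiplied by bin number.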

Variant | protein stability index
TLDGYGIHPKSIDLDNYFTANRLL [R21N] | 1.8
TLDGYGIHPKSIDLDNYFTAYRLL [R21Y] | 3.26
TLDGYGIHPKSIDLDNYFTAGRLL [R21G] | 2.4
TLDGYGIHPKSIDLDNYFTAVRLL [R21V] | 2.72
TLDGYGIHPKSIDLDNYFTATRLL [R21T] | 1.56
TLDGYGIHPKSIDLDNYFTADRLL [R21D] | 2.67
TLDGYGIHPKSIDLDNYFTASRLL [R21S] | 1.69
TLDGYGIHPKSIDLDNYFTAIRLL [R21I] | 1.6
TLDGYGIHPKSIDLDNYFTAERLL [R21E] | 2.12
TLDGYGIHPKSIDLDNYFTACRLL [R21C] | 1.7
TLDGYGIHPKSIDLDNYFTAHRLL [R21H] | 2.8
TLDGYGIHPKSIDLDNYFTAQRLL [R21Q] | 1.71
TLDGYGIHPKSIDLDNYFKARRLL [T19K] | 2.46
TLDGYGIHPKSIDLDNYFPARRLL [T19P] | 2
TLDGYGIHPKSIDLDNYFYARRLL [T19Y] | 1.8
TLDGYGIHPKSIDLDNYFNARRLL [T19N] | 2.09
TLDGYGIHPKSIDLDNYFGARRLL [T19G] | 1.89
TLDGYGIHPKSIDLDNYFAARRLL [T19A] | 2.01
TLDGYGIHPKSIDLDNYFSARRLL [T19S] | 1.9
TLDGYGIHPKSIDLDNYFWARRLL [T19W] | 2.08
TLDGYGIHPKSIDLDNYFVARRLL [T19V] | 1.66
TLDGYGIHPKSIDLDNYFHARRLL [T19H] | 2.32
TLDGYGIHPKSIDLDNYFQARRLL [T19Q] | 1.77
TLDGYGIHPKSIDLDNYFIARRLL [T19I] | 2.03

Variant | protein stability index
TLDGYGIHPKSIDLDNYFDARRLL [T19D] | 2.07
TLDGYGIHPKSIDLDNYFRARRLL [T19R] | 2.81
TLDGYGIHPKSIDLDNYFLARRLL [T19L] | 1.26
TLDGYGIHPKSIDLDNYFMARRLL [T19M] | 1.67
TLDGYGIHPKSIDLDNYFFARRLL [T19F] | 1.71
TLDGYGIHPKSIDLDNYFEARRLL [T19E] | 2.09
TLDGYGIHPKSIDLDNYFCARRLL [T19C] | 1.69
TLDGYGIHPKSIDLDNYFTCRRLL [A20C] | 1.6
TLDGYGIHPKSIDLDNYFTLRRLL [A20L] | 1.53
TLDGYGIHPKSIDLDNYFTVRRLL [A20V] | 1.35
TLDGYGIHPKSIDLDNYFTSRRLL [A20S] | 2.03
TLDGYGIHPKSIDLDNYFTKRRLL [A20K] | 2.34
TLDGYGIHPKSIDLDNYFTDRRLL [A20D] | 2.76
TLDGYGIHPKSIDLDNYFTGRRLL [A20G] | 1.71
TLDGYGIHPKSIDLDNYFTFRRLL [A20F] | 1.8
TLDGYGIHPKSIDLDNYFTERRLL [A20E] | 1.87
TLDGYGIHPKSIDLDNYFTQRRLL [A20Q] | 2.23
TLDGYGIHPKSIDLDNYFTPRRLL [A20P] | 1.84
TLDGYGIHPKSIDLDNYFTWRRLL [A20W] | 2.04
TLDGYGIHPKSIDLDNYFTHRRLL [A20H] | 1.66
TLDGYGIHPKSIDLDNYFTIRRLL [A20I] | 1.77
TLDGYGIHPKSIDLDNYFTRRRLL [A20R] | 2.17
TLDGYGIHPKSIDLDNYFTYRRLL [A20Y] | 1.92
TLDGYGIHPKSIDLDNYFTNRRLL [A20N] | 1.49

Variant | protein stability index
TLDGYGIHPKSIDLDNYFTTRRLL [A20T] | 1.49
TLDGYGIHPKSIDLDNYFTMRRLL [A20M] | 1.96
TLDGYGIHPKSIDLDVYFTARRLL [N16V] | 2.24
TLDGYGIHPKSIDLDCYFTARRLL [N16C] | 2.51
TLDGYGIHPKSIDLDEYFTARRLL [N16E] | 2.19
TLDGYGIHPKSIDLDSYFTARRLL [N16S] | 2.6
TLDGYGIHPKSIDLDKYFTARRLL [N16K] | 1.39
TLDGYGIHPKSIDLDAYFTARRLL [N16A] | 1.72
TLDGYGIHPKSIDLDFYFTARRLL [N16F] | 2.63
TLDGYGIHPKSIDLDWYFTARRLL [N16W] | 1.96
TLDGYGIHPKSIDLDQYFTARRLL [N16Q] | 1.8
TLDGYGIHPKSIDLDMYFTARRLL [N16M] | 1.87
TLDGYGIHPKSIDLDPYFTARRLL [N16P] | 1.98
TLDGYGIHPKSIDLDDYFTARRLL [N16D] | 2.03
TLDGYGIHPKSIDLDGYFTARRLL [N16G] | 1.21
TLDGYGIHPKSIDLDIYFTARRLL [N16I] | 3.1
TLDGYGIHPKSIDLDTYFTARRLL [N16T] | 1.76
TLDGYGIHPKSIDLDHYFTARRLL [N16H] | 1.9
TLDGYGIHPKSIDLDRYFTARRLL [N16R] | 1.82
TLDGYGIHPKSIDLDYYFTARRLL [N16Y] | 2.19
TLDGYGIHPKSIDPDNYFTARRLL [L14P] | 2.31
TLDGYGIHPKSIDTDNYFTARRLL [L14T] | 2.55
TLDGYGIHPKSIDVDNYFTARRLL [L14V] | 1.71
TLDGYGIHPKSIDWDNYFTARRLL [L14W] | 1.95

Variant | protein stability index
TLDGYGIHPKSIDYDNYFTARRLL [L14Y] | 2.25
TLDGYGIHPKSIDNDNYFTARRLL [L14N] | 2.17
TLDGYGIHPKSIDRDNYFTARRLL [L14R] | 2.1
TLDGYGIHPKSIDSDNYFTARRLL [L14S] | 2.62
TLDGYGIHPKSIDQDNYFTARRLL [L14Q] | 2.21
TLDGYGIHPKSIDLDNYFTARELL [R22E] | 1.88
TLDGYGIHPKSIDLDNYFTARGLL [R22G] | 2.53
TLDGYGIHPKSIDLDNYFTARCLL [R22C] | 2.16
TLDGYGIHPKSIDLDNYFTARALL [R22A] | 1.49
TLDGYGIHPKSIDLDNYFTARDLL [R22D] | 2.05
TLDGYGIHPKSIDLDNYFTARTLL [R22T] | 2.25
TLDGYGIHPKSIDLDNYFTARPLL [R22P] | 1.97
TLDGYGIHPKSIDLDNYFTARQLL [R22Q] | 1.89
TLDGYGIHPKSIDLDNYFTARFLL [R22F] | 1.6
TLDGYGIHPKSIDLDNYFTARHLL [R22H] | 2.2
TLDGYGIHPKSIDLDNYFTARKLL [R22K] | 2.2
TLDGYGIHPKSIDLDNYFTARWLL [R22W] | 2.21
TLDGYGIHPKSIDLDNYFTARYLL [R22Y] | 1.89
TLDGYGIHPKSIDLDNYFTARILL [R22I] | 3.54
TLDGYGIHPKSIDLDNYFTARSLL [R22S] | 1.69
TLDGYGIHPKSIDLDNYFTARVLL [R22V] | 1.71
TLDGYGIHPKSIDLDNYFTARNLL [R22N] | 1.85
